According to article PMC7029000:
Where “and” joins values, the source holds several entries; their conditions need not be identical. Equal entries are not always repeated.

What was measured:
[1] = target: PKM2 (mouse (endogenous in primary astrocytes and striatum)) (UniProt P52480); assay: native gel or EMSA; blue native PAGE of striatum of Drd2 flox/flox and Drd2 hGFAPcKO mice after 5 mg/kg quinpirole or pyridoxine for 7 days, immunoblot for PKM2; tetramer to dimers
[2] = target: PKM2 (mouse (endogenous in primary astrocytes and striatum)) (UniProt P52480); assay: native gel or EMSA; blue native PAGE (8%, 4 °C) of digitonin lysates of primary astrocytes, immunoblot for PKM2; tetramer to dimers; cells treated with quinpirole, DASA-58, PTX, β-arrestin siRNA, pyridoxine
[3] = target: Purified recombinant PKM2 (UniProt P52480); assay: native gel or EMSA; blue native PAGE of purified recombinant PKM2 mixed with natural products (vindoline, pyridoxine and others); tetramer to dimers

PKM2, P52480 1-531 (enzyme; other documents disagree on this pair), sequence (P52480 whole entry): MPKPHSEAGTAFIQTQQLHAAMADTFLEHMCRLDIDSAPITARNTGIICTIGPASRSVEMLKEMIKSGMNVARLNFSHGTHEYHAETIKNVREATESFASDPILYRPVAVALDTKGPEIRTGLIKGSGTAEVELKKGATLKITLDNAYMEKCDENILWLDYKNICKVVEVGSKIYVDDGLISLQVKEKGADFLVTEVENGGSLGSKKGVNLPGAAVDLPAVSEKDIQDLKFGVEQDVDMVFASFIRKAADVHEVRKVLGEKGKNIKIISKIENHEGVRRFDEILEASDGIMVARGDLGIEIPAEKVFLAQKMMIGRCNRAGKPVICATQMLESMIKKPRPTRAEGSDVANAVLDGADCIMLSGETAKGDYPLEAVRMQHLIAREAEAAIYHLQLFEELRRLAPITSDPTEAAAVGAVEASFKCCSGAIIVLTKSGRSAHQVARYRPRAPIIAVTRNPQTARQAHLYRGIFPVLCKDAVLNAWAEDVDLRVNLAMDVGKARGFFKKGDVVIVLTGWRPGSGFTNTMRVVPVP
Purified recombinant PKM2, P52480 1-531 (enzyme; other documents disagree on this pair), sequence (P52480 whole entry): as above

stoichiometry N [1]	stoichiometry N [2]	stoichiometry N [3]	Substance
2 and 4	4 and 2		PKM2, P52480 1-531 (enzyme; other documents disagree on this pair)
		2 and 4	Purified recombinant PKM2, P52480 1-531 (enzyme; other documents disagree on this pair)
